Assays:
[1] = target: SARS-CoV-2 S protein (recombinant, His-tagged) (SARS-CoV-2 Wuhan-Hu-1 (MN908947)) (UniProt P0DTC2)
[2] = target: SARS-CoV-2 receptor binding domain (RBD), Wuhan-1 (SARS-CoV-2 Wuhan-Hu-1) (UniProt P0DTC2); assay: SPR

Substance	fold higher binding affinity than for RBD [1] [fold]	Kd [2] [nM]
CC6.33 Fab	10	–
CC12.1 IgG (antibody)	–	6
CC6.33 IgG (antibody)	–	257
CC6.30 IgG (antibody)	–	1.7
